# From patent US20030175679A1, “Methods for cell screening of compounds capable of modulating the activity of ubiquitin-ligase scf complexes and their uses” (priority 1999, published 2003)
# B1: Ha-Met30: full-length Met30 protein with a repetition of 3 hemagglutinin (Ha) antigenic units at its amino-terminal end (protein, UniProt P39014 1-640, looked up)
# chain: MRRERQRMMSFEDKDKDDLDNSNSNNSSEMTDTAMMPPLKRLLITGSSDDLAQGSSGKKKMTMATRSPSSSPDLATNDSGTRVQPLPEYNFTKFCYRHNPDIQFSPTHTACYKQDLKRTQEINANIAKLPLQEQSDIHHIISKYSNSNDKIRKLILDGILSTSCFPQLSYISSLVTHMIKIDFISILPQELSLKILSYLDCQSLCNATRVCRKWQKLADDDRVWYHMCEQHIDRKCPNCGWGLPLLHMKRARIQQNSTGSSSNADIQTQTTRPWKVIYRERFKVESNWRKGHCRIQEFKGHMDGVLTLQFNYRLLFTGSYDSTIGIWDLFTGKLIRRLSGHSDGVKTLYFDDRKLITGSLDKTIRVWNYITGECISTYRGHSDSVLSVDSYQKVIVSGSADKTVKVWHVESRTCYTLRGHTEWVNCVKLHPKSFSCFSCSDDTTIRMWDIRTNSCLKVFRGHVGQVQKIIPLTIKDVENLATDNTSDGSSPQDDPTMTDGADESDTPSNEQETVLDENIPYPTHLLSCGLDNTIKLWDVKTGKCIRTQFGHVEGVWDIAADNFRIISGSHDGSIKVWDLQSGKCMHTFNGRRLQRETQHTQTQSLGDKVAPIACVCIGDSECFSGDEFGCVKMYKFDLND
# modifications: full-length N-terminal 3x HA tag
# notes: full-length Met30 protein with a repetition of 3 hemagglutinin (Ha) antigenic units at its amino-terminal end
# B2: Ha-Met28: full-length Met28 protein with a repetition of 3 hemagglutinin (Ha) antigenic units at its amino-terminal end (protein, UniProt P40573 1-187, looked up)
# chain: MSAKQGWEKKSTNIDIASRKGMNVNNLSEHLQNLISSDSELGSRLLSLLLVSSGNAEELISMINNGQDVSQFKKLREPRKGKVAATTAVVVKEEEAPVSTSNELDKIKQERRRKNTEASQRFRIRKKQKNFENMNKLQNLNTQINKLRDRIEQLNKENEFWKAKLNDINEIKSLKLLNDIKRRNMGR
# modifications: full-length N-terminal 3x HA tag
# notes: full-length Met28 protein with a repetition of 3 hemagglutinin (Ha) antigenic units at its amino-terminal end
# B3: Ha-Met4: Met4 protein derivative with three hemagglutinin (Ha) antigenic units at its amino-terminal end, expressed in yeast under the GAL1 promoter (protein, UniProt P32389 1-672, looked up)
# Transcriptional activator of …: MKQEQSHEGDSYSTEFINLFGKDTATHPSSNNGANNNGMGSTNSLDQFVATASSSSSLVTSSENRRPLIGDVTNRGNTNLYDHAVTPEILLEQLAYVDNFIPSLDNEFSNVDWNVNTTHNNANNNGADTFSSINANPFDLDEQLAIELSAFADDSFIFPDEDKPSNNNNNSNNGNDDHSNHDVLHEDPSTNNRQRNPHFLTQRRNTFLTSQYDQSKSRFSSKNKRNGNNGETNNFGDNMQNNHPFEPNFMGSPSQFPADATNMTSIDHGGFTNVDITSTENNTTGDNGVDALSNLLHRTTHTPNRSSPLSNVTSAQNSSSQQRKHSESKVDSNSDNNSSNKAPNITVPDYSIIPTSVLVTLLPRVNVPNGAYNSLISAGFDNDQIDAIAAIMAYHHQKKIRENNSNNNKNINTNDSQEAPILKNINELLSVLIPPSPAETRGPTTLSTSPSFNEHGVVAEASFLSSILELGIKHPKSNNIHNQRQPSRNDHKISRESDGNNGNDNVHHNNAVIKSSTTRGDEIAKIRSEPTLNASSSDHKENSLKRSHSGDLKNKKVPVDRKYSDNEDDEYDDADLHGFEKKQLIKKELGDDDEDLLIQSKKSHQKKKLKEKELESSIHELTEIAASLQKRIHTLETENKLLKNLVLSSGETEGIKKAESLKKQIFEKVQKE
# modifications: N-terminal 3x HA tag
# notes: Met4 protein derivative with three hemagglutinin (Ha) antigenic units at its amino-terminal end, expressed in yeast under the GAL1 promoter
# Test system: Yeast cells
# Experiment: Stability of Ha-labeled hybrid proteins expressed from the GAL1 promoter, measured with anti-Ha antibodies
# Type: cell-based, S. cerevisiae
# Conditions: in the absence of methionine (-Met)
row,Molecule,half-life of the hybrid protein
1,B1,~20 min
2,B2,~20 min
3,B3,~20 min

# Same assay, conditions: repressive conditions, in the presence of methionine (+Met)
row,Molecule,half-life of the hybrid protein
1,B1,do not modify the half-life
2,B2,do not modify the half-life
3,B3,~5 min
